The target of assay [1] is GM130-NLS phospho-S25 (synthetic peptide with a phosphate moiety on Ser-25 of GM130, a.a. 13-40) (human). The assay is described as follows: ITC; MicroCal iTC200, 25 °C, 20 mM HEPES pH 7.4, 1 mM DTT, with either 50 or 200 mM NaCl (which one is shown only in the figures); one-sites binding model. In general terms: Isothermal titration calorimetry measures the heat released or taken up as one component is titrated into another.

Assay [2] addresses GST-GM130-S25D (a.a. 1-85) (human). In words: pull-down; GST-GM130 (or GST-IBB) and the recombinant partner at 1:1 molar ratio on glutathione sepharose beads, wash with 150 mM NaCl, elution with 50 mM reduced glutathione, SDS-PAGE, Coomassie blue.
For assay [3] the target is unchanged. The assay is described as follows: pull-down; competition: p115-CTD with GST-GM130-WT or GST-GM130-S25D and increasing concentrations of Importin-α FL (up to 40 μM); GST beads, SDS-PAGE, Coomassie blue, band intensities normalised by GST-GM130.
The target in assay [4] is GST-GM130-WT (a.a. 1-85) (human). The description is as above.
Assay [5] addresses GST-GM130-S25D (a.a. 1-85) (human). The assay is described as follows: pull-down; 5 µM GST-GM130 with HEK293T cell lysate (RIPA buffer) and glutathione sepharose beads, washes with 150 mM NaCl, Western blot for Importin-α and Importin-β. On the technique in general: In western blotting, separated proteins are transferred to a membrane and probed.
Assay [6] addresses GM130-NLS WT peptide (human). In words: ITC; MicroCal iTC200, 25 °C, 20 mM HEPES pH 7.4, 1 mM DTT, with either 50 or 200 mM NaCl (which one is shown only in the figures); one-sites binding model.

Importin-β, recombinant, non-tagged, sequence (Q14974 whole entry): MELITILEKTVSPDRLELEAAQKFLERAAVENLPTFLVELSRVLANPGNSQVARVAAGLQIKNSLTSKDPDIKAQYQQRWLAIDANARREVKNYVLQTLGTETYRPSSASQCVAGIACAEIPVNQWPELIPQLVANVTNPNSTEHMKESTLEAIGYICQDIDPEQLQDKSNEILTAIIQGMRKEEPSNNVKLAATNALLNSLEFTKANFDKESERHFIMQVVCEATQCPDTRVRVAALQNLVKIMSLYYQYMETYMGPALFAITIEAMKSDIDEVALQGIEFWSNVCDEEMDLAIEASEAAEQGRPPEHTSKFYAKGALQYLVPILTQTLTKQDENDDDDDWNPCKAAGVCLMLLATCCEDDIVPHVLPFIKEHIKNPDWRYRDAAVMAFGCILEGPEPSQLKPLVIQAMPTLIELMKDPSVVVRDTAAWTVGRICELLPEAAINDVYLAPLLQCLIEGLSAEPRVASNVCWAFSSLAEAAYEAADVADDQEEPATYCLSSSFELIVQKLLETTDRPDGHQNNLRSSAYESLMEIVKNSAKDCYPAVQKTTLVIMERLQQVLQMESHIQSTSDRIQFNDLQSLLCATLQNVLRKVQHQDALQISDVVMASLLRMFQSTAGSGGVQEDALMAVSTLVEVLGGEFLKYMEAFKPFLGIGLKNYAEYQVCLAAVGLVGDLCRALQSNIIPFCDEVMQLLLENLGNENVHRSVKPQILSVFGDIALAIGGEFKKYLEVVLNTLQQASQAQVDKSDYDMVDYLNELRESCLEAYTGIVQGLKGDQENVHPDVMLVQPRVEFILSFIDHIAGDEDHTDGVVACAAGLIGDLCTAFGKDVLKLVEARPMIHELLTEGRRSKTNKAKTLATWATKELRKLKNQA

In assay [1], “Importin-α FL (full-length Importin-α), recombinant (from UniProt P52292 1-529) (natural protein)” yielded a fold lower dissociation constant than GM130-NLS WT of 3.3 fold. In assay [2], the percent of Importin-α FL pulled down relative to Importin-α(ΔIBB) amounted to 50%. In assay [3], this substance showed a fold Importin-α FL pulldown against wild-type GM130 (40 μM Importin-α FL) of 2 fold and a percent p115-CTD remaining on GM130 with 40 μM Importin-α FL of 20%. In assay [4], this substance had a percent p115-CTD remaining on GM130 with 40 μM Importin-α FL of 38%.
“Importin-α(ΔIBB) (Importin-α lacking the IBB domain, a.a. 70-524) (from UniProt P52293 70-524) (domain or fragment)”: the Kd (as a rule, the constant that tells how readily two partners part at equilibrium) in assay [1] turned out to be 126 nM.
As to “Importin-α, endogenous in HEK293T cells (from UniProt P52292 1-529) (natural protein)”, the fold Importin-α pulldown against wild-type GST-GM130 in assay [5] amounted to 1.3 fold.
The substance “Importin-β, recombinant, non-tagged (from UniProt Q14974 1-876) (natural protein)” gave a Kd in assay [6] of 1200 nM. The fold lower binding constant than the wild-type GM130 peptide in assay [1] was greater than 1000 fold.

The values above are taken from article PMC6754406, “Ran pathway-independent regulation of mitotic Golgi disassembly by Importin-α” (Nature Communications, 2019).
